Laboratory results reported in paper PMC12335825.

Target: MD39 HIV Env stabilized SOSIP trimer (MD39 HIV Env gp140) (HIV)
Assay: SEC-MALS; immunogens after S200 Increase size-exclusion chromatography in TBS; DAWN HELEOS II and Optilab T-rEX

With “MD39 HIV Env stabilized SOSIP trimer (MD39 HIV Env gp140)” as the substance, how does the stoichiometry N read?
Its stoichiometry N is 3.
